What was measured:
[1] = In vitro stability in PBS at room temperature (radiochemical purity by TLC); format: physicochemical; conditions: room temperature (25°C), 24 h after labeling, TLC on polyamide layer with acetonitrile
Method: (§1) The radiochemical purity of ^99mTc-pHLIP (Var7) and ^99mTc-kVar7 was determined by thin-layer chromatography (TLC). A thin polyamide layer was used as the stationary phase, and acetonitrile was used as the developing solvent. A sufficient amount of the labeled product was aspirated through a capillary pipette and spotted at the origin of the thin polyamide layer. The thin polyamide layer was air-dried and vertically placed in a test tube with developing solvent. The saturated thin polyamide layer was removed, dried, and placed on the TLC scanner for testing.
(§2) ^99mTc-pHLIP (Var7) and ^99mTc-kVar7 were placed in PBS at room temperature (25°C) and in fresh human serum at 37°C. Samples were taken to test the radiochemical purity at 1, 4, 6, and 24 h after labeling.

[2] = format: in vitro ADME, human
Method: as §1, §2

[3] = system: MDA-MB-231 cells; assay: Binding of labeled peptides to MDA-MB-231 cells at different pH values; format: cell-based, human; conditions: n=3
Method: a. When MDA-MB-231 cells grew to more than 90% confluence, they were digested. The cell concentration was adjusted to approximately 1.0 × 10^5 cells/mL, and 1 mL of the cell solution was added to each well of a 12-well plate and cultured overnight in a 37°C cell incubator.
b. The medium was discarded, and the cells were washed with PBS twice. Then, 2 mL of fresh medium and 37 kBq ^99mTc-pHLIP (Var7) or ^99mTc-kVar7 (20-30 μL) were added to each well. We adjusted the pH values of the wells to four levels (pH 7.4, 7.0, 6.5, and 6.0).
c. After culturing for 30, 60, 90, 120, and 180 min, the supernatant was aspirated into a supernatant tube, and each well was washed two times with PBS at the corresponding pH (7.4, 7.0, 6.5, or 6.0). The cleaning solution was also added into the supernatant tube. The cells were digested fully with 0.25% trypsin, and the cell suspension was aspirated into a cell tube and washed twice with PBS. The cleaning solution was also added to the cell tube. A γ counter was applied to measure the radioactivity count of the cell tube (B) and supernatant tube (F). The cell-binding fraction of ^99mTc-pHLIP (Var7) or ^99mTc-kVar7 = B/(B+F) × 100%.

[4] = system: MDA-MB-231 tumors; parameters: species or system BALB/c nude mice; conditions: mouse, in vivo
Method: (§3) Animal experiments were approved by the ethics committee of Qingdao University, and the management of animals followed ethical standards. We built an MDA-MB-231 tumor model using four- to- five-week-old female BALB/c nude mice (Shanghai SLAC Laboratory Animal Co., Ltd, China). To do so, 0.1 mL of a cell suspension (50 µL PBS + 50 µL Matrigel) containing 1 × 10^6 MDA-MB-231 cells was subcutaneously inoculated into the right axilla of each mouse.
When tumor diameters reached 0.8–1.0 cm, 24 tumor-bearing nude mice were selected for an in vivo biodistribution experiment. Each nude mouse was injected with approximately 1480 kBq/200 μL ^99mTc-pHLIP (Var7) or ^99mTc-kVar7 through the tail vein. The mice were sacrificed humanely 1 h, 2 h, 4 h, and 6 h after injection, and their tissues and organs, such as the brain, heart, lung, liver, kidney, stomach, small intestine, blood, muscle, bone, and tumor, were weighed and measured for their radioactivity count. The results are expressed as the percentage of injected dose per gram of tissue (%ID/g).

[5] = system: MDA-MB-231 tumors; format: in vivo, BALB/c nude mice; conditions: 1, 2, 4, and 6 h after tail vein injection of about 11.1 MBq/200 μL, n = 3
Method: as §3
When tumor diameters reached 0.8–1.0 cm, six tumor-bearing nude mice were selected for imaging. Each nude mouse was injected with approximately 11.1 MBq/200 μL ^99mTc-pHLIP (Var7) or ^99mTc-kVar7 through the tail vein. The tumor-bearing mice were anesthetized with 2% isoflurane at 1 h, 2 h, 4 h, and 6 h after injection and were fixed on the imaging bed of a small-animal SPECT/CT imaging system in the prone position. A pinhole collimator was applied. The main parameters were a matrix size of 256 × 256, magnification power of 1.45, and acquisition time at each time point of 10 min.

Substance: GaGG-GABA-ACEEQNPWARYLEWLFPTETLLLEL-NH2 [^99mTc-pHLIP (Var7)]
- radiochemical purity in PBS at 24 h [1]: > 99%
- radiochemical purity in fresh human serum at 24 h [2]: > 96%
- binding fraction to MDA-MB-231 cells ([3]; pH 6.0, 180 min, 37 kBq per well, γ counter, B/(B+F) × 100%, mean ± SD): 3.33 ± 0.12%
- binding fraction to MDA-MB-231 cells ([3]; pH 6.5, 180 min, 37 kBq per well, γ counter, B/(B+F) × 100%, mean ± SD): 3.02 ± 0.04%
- binding fraction to MDA-MB-231 cells ([3]; pH 7.0, 180 min, 37 kBq per well, γ counter, B/(B+F) × 100%, mean ± SD): 2.87 ± 0.03%
- binding fraction to MDA-MB-231 cells ([3]; pH 7.4, each time point (30, 60, 90, 120, and 180 min)): remained low
- blood clearance [4]: slow blood clearance
- tumor/nontumor (T/NT) ratio, trend over time [4]: increased over time
- SPECT/CT imaging of tumors [5]: clearly imaged at each time point

Substance: GaGG-GABA-ACEEQNPWARYLKWLFPTKTLLLKL-NH2 [^99mTc-kVar7, technetium-99m-labeled control peptide kVar7, pH-insensitive, with N4 chelating group and GABA spacer, reference compound]
- radiochemical purity in PBS at 24 h [1]: > 99%
- radiochemical purity in fresh human serum at 24 h [2]: > 96%
- binding fraction to MDA-MB-231 cells ([3]; all tested pH values (6.0, 6.5, 7.0, and 7.4), each time point (30, 60, 90, 120, and 180 min)): remained low
- blood clearance [4]: slow blood clearance
- tumor/nontumor (T/NT) ratio, trend over time [4]: no significant increasing trend
- SPECT/CT imaging of tumors [5]: not imaged

Reference: article PMC9069674, “Synthesis and Evaluation of Technetium-99m-Labeled pH (Low) Insertion Peptide Variant 7 for Early Diagnosis of MDA-MB-231 Triple-Negative Breast Cancer by Targeting the Tumor Microenvironment” (Frontiers in Oncology, 2022)
